# Measurements taken from paper PMC8556674.
# Legend:
# [1] = target: mchr-Miro2 (human) (UniProt Q8IXI1)
# [2] = target: mchr-Miro2 (human) (UniProt Q8IXI1); remark: listed apart in the source
# [3] = target: mchr-Miro2 A13V (human) (UniProt Q8IXI1)
# Chain of mchr-Miro2 A13V (human) (Q8IXI1 whole entry A13V): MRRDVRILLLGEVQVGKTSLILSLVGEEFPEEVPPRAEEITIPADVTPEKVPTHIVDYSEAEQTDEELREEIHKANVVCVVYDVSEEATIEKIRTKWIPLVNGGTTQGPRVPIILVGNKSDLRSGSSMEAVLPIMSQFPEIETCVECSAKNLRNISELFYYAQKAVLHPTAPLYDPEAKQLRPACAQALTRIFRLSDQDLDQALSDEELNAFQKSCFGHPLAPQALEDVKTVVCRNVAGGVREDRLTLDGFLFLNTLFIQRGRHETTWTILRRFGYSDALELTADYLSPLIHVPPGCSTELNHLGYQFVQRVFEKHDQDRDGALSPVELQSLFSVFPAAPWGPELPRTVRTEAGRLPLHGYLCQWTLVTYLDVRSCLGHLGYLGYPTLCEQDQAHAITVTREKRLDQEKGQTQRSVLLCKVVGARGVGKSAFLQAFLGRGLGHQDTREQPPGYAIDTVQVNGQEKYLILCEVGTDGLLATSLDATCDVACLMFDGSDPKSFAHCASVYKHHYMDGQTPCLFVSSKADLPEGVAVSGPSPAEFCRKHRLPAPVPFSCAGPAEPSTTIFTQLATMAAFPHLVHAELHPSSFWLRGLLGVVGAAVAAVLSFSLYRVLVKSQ
# Chain of mchr-Miro2 (human) (Q8IXI1 whole entry): as the sequence (Q8IXI1 whole entry A13V) above, with V13A counted along it
"FRAP immobile fraction, live HeLa cells [1]","FRAP t1/2 of mitochondrial GFP fluorescence, live HeLa cells [1]","PARF immobile fraction, HeLa cells, 25 uM digitonin [2]","FRAP immobile fraction, live HeLa cells [3]",Substance
0.04,1.5 s,–,–,"MYO19^898–970-GFP mut. (K923, R927 and K928 mutated to alanine) (from UniProt Q96H55 898-970) (domain or fragment)"
0.03,9.2 s,0.33,0.14,MYO19^898–970-GFP (from UniProt Q96H55 898-970) (domain or fragment)
